Patent US20040018198A1 (Amgen, published 2004)

Key:
[1] = molecular target: CA-IX-His-ECD (his-V5 tagged version of the CA IX protein, extracellular domain) (human, UniProt Q16790 38-414); assay: ELISA on CA-IX-His-ECD
[2] = molecular target: CA IX catalytic domain protein (CA9-CD) (human, UniProt Q16790 138-391); assay: ELISA on CA9-CD (catalytic domain)

OD [1] | OD [2] | Binder
2.2 OD | 2.46 OD | AB-MN-22.30 (antibody, human IgG2, V domains shown, also called AX014H22-30) VH: QVQLVESGGGVVQPGRSLRLSCAASGFTFSSYAMHWVRQAPGKGLEWVAVIWYDGSTKYYADSVKGRFTISRDNSKNTLYLQMNSLRAEDTAVYYCARDRGLLWFGELSPHYGMDVWGQGTTVTVSS VL: DIQMTQSPSSLSASVGDRVTITCRASQGIRNDLGWYQQKPGKAPKRLIYAASSLQSGVPSRFSGSGSGTDFTLTISSLQPEDFATYYCLQHYSYPLTFGGGTKVEIK
1.96 OD | 2.52 OD | AB-MN-22.29 (antibody, human IgG2, V domains shown, also called AX014H22-29) VH: QVQLQESGPGLVKPSETLSLTCTVSGGSISSYYWSWIRQPAGKGLEWIGRIYTSGSTNYNPSLKSRVTMSVDTSKNQFSLKLSSVTAADTAVYYCARDGQWLEDYGMDVWGQGTTVTVSS VL: DIQMTQSPSSVSASVGDRVTITCRASQGISSWLAWFQQKPGKAPKLLIYAASSLQSGVPSRFSGSGSGTDFTLTISSLQPEDFATYYCQQANSFPITFGQGTRLEIK
